Experimental data taken from the nanobody polyreactivity screen of Harvey et al. (2022).

Experiment: yeast display, Sf9 membrane polyspecificity reagent, FACS + sequencing; frameworks hold sequencing errors
How it was run: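 A nanobody's polyreactivity label depends on the gate it was sorted from. Yeast display cells were stained with 10% biotinylated, detergent-solubilized Sf9 membrane reagent for 1 hour at 4 °C, enriched on streptavidin microbeads and sorted by FACS. The low and high (top ~1%) gates were set on anti-HA fluorescence for expression and streptavidin fluorescence for reagent binding.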

Row | Sequence | polyreactivity (PSR sort gate)
1 | QVQLVESGGGLVQAGGSLRLSCAASGRIFDGNAMGWYRQAPGKERELVAAISSRGARTYYADSVKGRFTISRDNAKNTVYLQMNSLKPEDTAVYYCNKDLDSLSGAEYDYWGQGTQVTVSS | high polyreactivity
2 | QVQLVESGGGLVQAGGSLRLSCAASGRIFDGYAMGWYRQAPGKERELVAAISSRGGRTYYADSVKGRFTISRDNAKNTVYLQMNSLKPEDTAVYYCAGDDPYGEGDYWGQGTQVTVSS | low polyreactivity
3 | QVQLVESGGGLVQAGGSLRLSCAASGRIFDGYAMGWYRQAPGKERELVATITGDGGSTYYADSVKGRFTISRDNAKNTVYLQMNSLKPEDTAVYYCAARLTRRLSWYLYNNDYWGQGTQVTVSS | high polyreactivity
4 | QVQLVESGGGLVQAGGSLRLSCAASGRIFDGYAMGWYRQAPGKESELVAAISSRGGRTYYADSVKGRFTISRDNAKNTVYLQMNSLKPEDTAVYYCAGDDPYGEGDYWGQGTQVTVSS | low polyreactivity
5 | QVQLVESGGGLVQAGGSLRLSCAASGRIFDGYVMGWYRQAPGKERELVAAISASGGSTYYADSVKGRFTISRDNAKNTVYLQMNSLKPEDTAVYYCATDALYGYDYWGQGTQVTVSS | high polyreactivity
6 | QVQLVESGGGLVQAGGSLRLSCAASGRIFDHYAMVWYRQAPGKERELVAAITRSGGITYYADSVKGRFTISRDNAKYTVYLQMNSLKPEDTAVYYCAALSYRYTDNFDYWGQGTQVTVSS | low polyreactivity
7 | QVQLVESGGGLVQAGGSLRLSCAASGRIFDIYALGWYRQAPGKERELVAAITWRGGSTYYADSVKGRFTISRDNAKNTVYLQMNSLKPEDTAVYYCAVDFITPRGSYYWGQGTQVTVSS | low polyreactivity
8 | QVQLVESGGGLVQAGGSLRLSCAASGRIFDIYAMGWYRQAAGKERELVAAIRLSSGTTYYADSVKGRFTISRDNAKNTVYLQMNSLKPEDTAVYYCGADFIRPPYDYWGQGTQVTVSS | high polyreactivity
9 | QVQLVESGGGLVQAGGSLRLSCAASGRIFDKYTMGWYRQAPGKERELVAAISKSGSGTFYADSVKGRFTISRDNAKNTVYLQMNSLKPEDTAVYYCARVYTVGTGRSWRLDYWGQGTQVTVSS | high polyreactivity
10 | QVQLVESGGGLVQAGGSLRLSCAASGRIFDLKAMGWYRQAPGERKGVGCLYFLVWWSTYYADSVKGRFTISRDNAKNTVYLQMNSLKPVDTAVYYCAAVYFYSWEGDGDYWGQGTQVTVSS | low polyreactivity
11 | QVQLVESGGGLVQAGGSLRLSCAASGRIFDLNAMGWYRQAPGKERELVAVIDSYGSTYYADSVKGRFTISRDNAKNTVYLQMNSQKPEDSAVYYCTKYWYSRHVRYWAYYAEQRYDYWGQGTQVTVSS | low polyreactivity
12 | QVQLVESGGGLVQAGGSLRLSCAASGRIFDLNAMGWYRQAPGKETELVAAISYSGGRTFYADSVKGRFTISRDNAKNTVYLQMNSLKPEDTAVYYCNARYGKPAYQYGMDYWGQGTQVTVSS | low polyreactivity
13 | QVQLVESGGGLVQAGGSLRLSCAASGRIFDLYTMGWYRQAPGKERELVAAIRWSDGSTYYADSVKGRFTISRDNAKNTDYLQMNSLKPEDTAVYYCAADSRTSYYNDDYDYWGQGTQVTVSS | low polyreactivity
14 | QVQLVESGGGLVQAGGSLRLSCAASGRIFDQYAMAWYRQAPGKERELVATISGSGGSTYYADSVKGRFTISRDNAKNTVYLQMNSLKPEDTAVYYCAAVSVSSWYDYWGQGTQVTVSS | low polyreactivity
15 | QVQLVESGGGLVQAGGSLRLSCAASGRIFDRNAMGWYRQAPGKERELVAAITRSGGRPYYADSVKGRFTISRDNAKNTVYLQMNSLKPEDTAVYYCNRGYPRSVVHYNSWGQGTQVTVSS | high polyreactivity
16 | QVQLVESGGGLVQAGGSLRLSCAASGRIFDRYDMGWYRQAPGKERELVAGITASGGSTYYADSVKGRFTISRDNAKNTVYLQMTSLKPEDTAVYYCAVVYGYRYYYWGQGTQVTVSS | high polyreactivity
17 | QVQLVESGGGLVQAGGSLRLSCAASGRIFDSYAMGWYRQAPGKERELVASITCSGGSTYADSVKGRFTSSRDNAKNTVYLQMNSLKPEDTAVYYFDYWGQGTQVTVSS | low polyreactivity
